Source: patent US20110318339A1 (FABRUS, published 2011)

B1: Fab VH1-46_IGHD6-6*01_IGHJ1*01 S102A/S103P/S104F/H111F & L6_IGKJ1*01 (Fab, V domains shown)
VH: QVQLVQSGAEVKKPGASVKVSCKASGYTFTSYYMHWVRQAPGQGLEWMGIINPSGGSTSYAQKFQGRVTMTRDTSTSTVYMELSSLRSEDTAVYYCAREEYAPFSAEYFQFWGQGTLVTVSS
VL: not shown
notes: Fab made in E. coli: VH on CH1 with His6 and Flag tags (Plasmid A), VL on kappa CL (Plasmid C); also called H: APFF & L: wt
B2: Fab VH1-46_IGHD6-6*01_IGHJ1*01 S102A/S103P/S104F/H111F & L6_IGKJ1*01 S28N/S30D/S31H S52T (Fab, V domains shown)
VH: QVQLVQSGAEVKKPGASVKVSCKASGYTFTSYYMHWVRQAPGQGLEWMGIINPSGGSTSYAQKFQGRVTMTRDTSTSTVYMELSSLRSEDTAVYYCAREEYAPFSAEYFQFWGQGTLVTVSS
VL: EIVLTQSPATLSLSPGERATLSCRASQNVDHYLAWYQQKPGQAPRLLIYDATNRATGIPARFSGSGSGTDFTLTISSLEPEDFAVYYCQQRSNWPPWTFGQGTKVEIKR
notes: Fab made in E. coli: VH on CH1 with His6 and Flag tags (Plasmid A), VL on kappa CL (Plasmid C); also called H: APFF & L: NDH S52T
B3: Fab VH1-46_IGHD6-6*01_IGHJ1*01 S102A/S103P/S104F/H111F & L6_IGKJ1*01 S28N/S30D/S31H N53H (Fab, V domains shown)
VH: QVQLVQSGAEVKKPGASVKVSCKASGYTFTSYYMHWVRQAPGQGLEWMGIINPSGGSTSYAQKFQGRVTMTRDTSTSTVYMELSSLRSEDTAVYYCAREEYAPFSAEYFQFWGQGTLVTVSS
VL: EIVLTQSPATLSLSPGERATLSCRASQNVDHYLAWYQQKPGQAPRLLIYDASHRATGIPARFSGSGSGTDFTLTISSLEPEDFAVYYCQQRSNWPPWTFGQGTKVEIKR
notes: Fab made in E. coli: VH on CH1 with His6 and Flag tags (Plasmid A), VL on kappa CL (Plasmid C); also called H: APFF & L: NDH N53H
B4: Fab VH1-46_IGHD6-6*01_IGHJ1*01 S102A/S103P/S104F/H111F I51T/N52V & L6_IGKJ1*01 (Fab, V domains shown)
VH: QVQLVQSGAEVKKPGASVKVSCKASGYTFTSYYMHWVRQAPGQGLEWMGITVPSGGSTSYAQKFQGRVTMTRDTSTSTVYMELSSLRSEDTAVYYCAREEYAPFSAEYFQFWGQGTLVTVSS
VL: not shown
notes: Fab made in E. coli: VH on CH1 with His6 and Flag tags (Plasmid A), VL on kappa CL (Plasmid C); also called H: APFF TV & L: wt; APFF I51T/N52V
B5: Fab VH1-46_IGHD6-6*01_IGHJ1*01 S102A/S103P/S104F/H111F I51N/N52L/S54T/G56H & L6_IGKJ1*01 (Fab, V domains shown)
VH: QVQLVQSGAEVKKPGASVKVSCKASGYTFTSYYMHWVRQAPGQGLEWMGINLPTGHSTSYAQKFQGRVTMTRDTSTSTVYMELSSLRSEDTAVYYCAREEYAPFSAEYFQFWGQGTLVTVSS
VL: not shown
notes: Fab made in E. coli: VH on CH1 with His6 and Flag tags (Plasmid A), VL on kappa CL (Plasmid C); also called H: APFF NLTH & L: wt
B6: Fab VH1-46_IGHD6-6*01_IGHJ1*01 S102A/S103P/S104F/H111F I51V/N52L/S54T/G56H & L6_IGKJ1*01 (Fab, V domains shown)
VH: QVQLVQSGAEVKKPGASVKVSCKASGYTFTSYYMHWVRQAPGQGLEWMGIVLPTGHSTSYAQKFQGRVTMTRDTSTSTVYMELSSLRSEDTAVYYCAREEYAPFSAEYFQFWGQGTLVTVSS
VL: not shown
notes: Fab made in E. coli: VH on CH1 with His6 and Flag tags (Plasmid A), VL on kappa CL (Plasmid C); also called H: APFF VLTH & L: wt

Experiments:
[1] = target: T1, recombinant human DLL4 (Cat# 1506-D4/CF, R&D Systems) (human, UniProt Q9NR61 27-529); experiment: ELISA, DLL4 coated, Fab 50 nM
T1 construct: Bought protein; also called hDLL4; rHuman DLL4
Method: (§1) The plate was blocked by adding 1% BSA in Tris-buffered Saline Tween (TBST) and incubating for 1 hour at room temperature followed by washing 2 times with 150 μl TBST. A Fab antibody was serially diluted in 1% BSA in PBS. A 50 μl aliquot of each serial dilution was added, in triplicate, to each well and the plate was incubated for 1 hour at room temperature followed by washing 2 times with TBST. 50 μl of either goat anti-human kappa HRP conjugated secondary antibody (Cat # A7164-1 mL, Sigma-Aldrich) or goat anti-human lambda HRP conjugated secondary antibody (Cat # L1645-1 ml, Sigma-Aldrich), diluted 1:1000 in 1% BSA in PBS, was added to each well and the plate was incubated for 30 minutes at room temperature followed by washing 3 times with 200 μl TBST. Finally, 50 μl TMB one-component reagent (Cat # TMBW-1000-01, BioFax) was added and allowed to develop for 2 minutes at room temperature. The reaction was immediately halted by the addition of 50 μl 0.5M H₂SO₄ and the absorbance at 450 nm was measured using an ELISA plate reader.

[2] = target: T1, recombinant human DLL4 (Cat# …); experiment: ELISA, DLL4 coated, Fab 100 nM
[3] = target: T1, recombinant human DLL4 (Cat# …); experiment: ELISA, DLL4 coated, Fab 75 nM
[4] = target: T1, recombinant human DLL4 (Cat# …); experiment: ELISA, DLL4 coated, Fab 50 nM; remark: listed apart in the source
Method: as §1

[5] = target: T1, recombinant human DLL4 (Cat# …); experiment: ELISA, DLL4 coated, Fab 6.25 nM
Method: as §1

[6] = target: T1, recombinant human DLL4 (Cat# …); experiment: ELISA, DLL4 coated, Fab 25 nM
Method: as §1

[7] = target: T1, recombinant human DLL4 (Cat# …); experiment: ELISA, DLL4 coated, Fab 100 nM; remark: listed apart in the source
Method: as §1

[8] = target: T1, recombinant human DLL4 (Cat# …); experiment: ELISA, DLL4 coated, Fab 3.125 nM
Method: as §1

[9] = target: T1, recombinant human DLL4 (Cat# …); experiment: ELISA, DLL4 coated, Fab 12.5 nM
Method: as §1

[10] = target: T1, recombinant human DLL4 (Cat# …); experiment: ELISA, DLL4 coated, Fab 1.3 nM
Method: as §1

[11] = target: T1, recombinant human DLL4 (Cat# …); experiment: ELISA, DLL4 coated, Fab 20 nM
Method: as §1

[12] = target: T1, recombinant human DLL4 (Cat# …); experiment: ELISA, DLL4 coated, Fab 10 nM
Method: as §1

[13] = target: T1, recombinant human DLL4 (Cat# …); experiment: ELISA, DLL4 coated, Fab 2.5 nM
Method: as §1

[14] = target: T1, recombinant human DLL4 (Cat# …); experiment: ELISA, DLL4 coated, Fab 0.63 nM
Method: as §1

[15] = target: T1, recombinant human DLL4 (Cat# …); experiment: ELISA, DLL4 coated, Fab 0.31 nM
Method: as §1

[16] = target: T1, recombinant human DLL4 (Cat# …); experiment: ELISA, DLL4 coated, Fab 5 nM
Method: as §1

[17] = target: T1, recombinant human DLL4 (Cat# …); experiment: ELISA, DLL4 coated, Fab 0.16 nM
Method: as §1

Binder | ELISA absorbance at 450 nm [1] [A450] | ELISA absorbance at 450 nm [2] [A450] | ELISA absorbance at 450 nm [3] [A450] | ELISA absorbance at 450 nm [4] [A450] | ELISA absorbance at 450 nm [5] [A450] | ELISA absorbance at 450 nm [6] [A450] | ELISA absorbance at 450 nm [7] [A450] | ELISA absorbance at 450 nm [8] [A450] | ELISA absorbance at 450 nm [9] [A450] | ELISA absorbance at 450 nm [10] [A450] | ELISA absorbance at 450 nm [11] [A450] | ELISA absorbance at 450 nm [12] [A450] | ELISA absorbance at 450 nm [13] [A450] | ELISA absorbance at 450 nm [14] [A450] | ELISA absorbance at 450 nm [15] [A450] | ELISA absorbance at 450 nm [16] [A450] | ELISA absorbance at 450 nm [17] [A450]
B1 | 0.06 | 0.072 | 0.072 | – | – | – | – | – | – | – | – | – | – | – | – | – | –
B2 | – | – | – | 0.49 | 0.13 | 0.323 | 0.653 | 0.099 | 0.215 | – | – | – | – | – | – | – | –
B3 | – | – | – | 0.416 | 0.109 | 0.238 | 0.608 | 0.089 | 0.167 | – | – | – | – | – | – | – | –
B4 | – | – | – | – | – | – | – | – | – | 0.055 | 0.648 | 0.506 | 0.358 | 0.115 | 0.648 | 0.724 | 0.506
B5 | – | – | – | – | – | – | – | – | – | 0.143 | 1.63 | 1.36 | 1.17 | 0.419 | 1.63 | 1.75 | 1.36
B6 | – | – | – | – | – | – | – | – | – | 0.252 | 2.05 | 1.85 | 1.66 | 0.785 | 2.05 | 2.2 | 1.85
